Laboratory results taken from patent US12459987B2, “Monoclonal antibodies for prevention and treatment of herpes simplex viral infections” (priority 2019, dated 2025).
Entries after “also recorded” stand apart in the source; their conditions may differ.

Legend:
[1] = molecular target: glycoprotein B of HSV-1 (gB-1) (Human herpesvirus 1, UniProt P10211); experiment: Luminex multiplex assay, binding to gB-1; settings: Table 3 summary
Description: FIGS. 9A and 9B are graphs of median fluorescence intensity (MFI) versus IgG concentration (ng/ml), showing the binding of various recombinant antibodies to gB-1 as measured by Luminex multiplex assay.
BMPC-23 binds HSV-1 gB (gB-1). The gB-1 binding of the antibodies was determined by Luminex multiplex assay. Mixtures of antigen (gB-1)-conjugated microspheres (1,000 counts each) were added to each well of 96-well filter plates (Millipore). After washing with PBS containing 1% BSA, 0.05% Tween 20 and 0.05% NaN3, serially diluted recombinant antibodies (5E7, 19G7, 18G4, 22E10, 3A2, 17G3, 22D10, 32H6, 33B8, 25H7, BMPC-23, and S5V2-29) were added to the plates and incubated for 2 hours at room temperature, with mild agitation of the plates. Samples were diluted in PBS containing 1% cow milk, 1% BSA, 0.05% Tween 20 and 0.05% NaN3. After washing, PE goat anti-mouse IgG was added to the plates and incubated for 1 hour at room temperature with mild agitation. After washing, microspheres were resuspended in PBS containing 1% BSA, 0.05% Tween 20 and 0.05% NaN3 and fluorescent signals from each microsphere were measured in a Bio-Plex® 3D machine.
Finding gB-1 specific HSV antibodies. After Nojima culture (single B-cell culture), HSV-specific antibodies were cloned from germinal center B cells and tested for binding to HSV-1 gB-1 by Luminex multiplex assay as described above. FIGS. 9A and 9B show the gB-1 binding results for 10 antibodies in comparison with BMPC-23. With the exception of BMPC-23, the antibodies in Table 3 were derived from germinal center B cells (lymph nodes) taken 15-17 days after primary vaccination with ΔgD-2. BMPC-23 was derived from bone marrow plasmacytes taken 2 weeks post-boost with ΔgD-2. Nucleotide sequences and amino acid sequences for the heavy-chains and light chains are shown in Table 4, as are the amino acid sequences for the light chain and heavy chain CDR1, CDR2, and CDR3.

[2] = tested on: HSV-2 G infected cell lysates; experiment: ELISA binding of recombinant antibodies to HSV-2 G infected cell lysates; set-up: species or system HSV-2 G strain; settings: for Binding to HSV-lysate: Table 3 summary
Description: Binding of recombinant antibodies to HSV-2 G lysates was tested by ELISA. Both heavy and light chain V(D)J rearrangements were amplified from selected single B-cell culture wells (22D10, 32H6, 33B8, and 35H7) by standard RT-PCR. These cloned V(D)J rearrangements were introduced into expression vectors. Recombinant antibodies were obtained by co-transfection of these expression vectors into Expi293F cells. ≥4 mg of purified IgGs was obtained (not shown). […]
Briefly, mice were vaccinated with ΔgD-2 and then 16 days after vaccination, the draining, inguinal lymph nodes were harvested. GC B cells were isolated from these tissues and were cultured in Nojima cultures. Although overall cloning efficiency of GC B cells from these (shipped) tissues was lower than those from freshly isolated tissues (6% vs. 20%), 50 GC clones were obtained that were specific to HSV-2 G strain (HSV-2 G or HSV2-G) lysate. GC B cells from inguinal lymph nodes of mice vaccinated with ΔgD-2 were sorted directly into 96-well plates (1 cell/well). These GC B cells were then cultured in the presence of NB-21.2D9 feeder cells. After culture, presence of IgG was first determined by ELISA, and then the reactivity of culture supernatant IgG against HSV-2 G lysates (HSV-2 G) and uninfected Vero lysates were tested by ELISA.
Based on the obtained V(D)J sequences from each B-cell culture, paired heavy and light chains were re-expressed (as recombinant mouse IgG1 and IgG2c antibodies) in Expi293F cells (Kuraoka et al. Immunity 2016; DiLillo et al. Nature Medicine 2013). […] As expected, all recombinant antibodies reacted specifically with HSV-2 G lysates (FIG. 3). […] Binding of recombinant antibodies to HSV-2 G lysates was tested by ELISA. Both heavy and light chain V(D)J rearrangements were amplified from selected single B-cell culture wells (22D10, 32H6, 33B8, and 35H7) by standard RT-PCR. These cloned V(D)J rearrangements were introduced into expression vectors. Recombinant antibodies were obtained by co-transfection of these expression vectors into Expi293F cells. ≥4 mg of purified IgGs was obtained (not shown). […] These recombinant antibodies (≥4 mg each) were tested for identification of reacting antigen(s), in an in vitro FcγRIV activation assay (Promega FcγRIV ADCC Reporter Bioassay)(FIG. 4), and in vivo protection assay. […]

[3] = molecular target: gB-1 (Human herpesvirus 1, UniProt P10211); experiment: Luminex competition: inhibition of binding of BMPC-23 human IgG to gB-1; set-up: species or system HSV-1; settings: Table 3 summary
Description: FIGS. 10A-10G show the capacity of gB-1 specific mouse monoclonal IgG antibodies to inhibit binding of BMPC-23 human IgG antibodies to gB-1.
Finding BMPC-like antibodies. Nine out of 10 gB-1 specific mouse monoclonal IgG antibodies in FIG. 3 were tested for their capacity to inhibit binding of BMPC-23 human IgG antibodies to gB-1. Serially diluted, gB-1 specific mouse monoclonal antibodies or irrelevant, control mouse antibody (H33Lγ1) were incubated with gB-1 conjugated Luminex beads. After incubation, fixed concentration (2 ng/ml) of BMPC-23 human IgG antibodies were added to each well. After washing, mouse anti-human lgG-PE was added to detect binding of human BMPC-23 antibodies. […] Strong inhibition by HSV010-4 (>95% at 222 ng/ml), HSV010-7 (>90% at 222 ng/ml), and HSV010-34 (>80% at 222 ng/ml), shown in FIGS. 10B, 10F, and 10G, respectively, indicates these antibodies bind epitopes on gB-1 closely overlapping with the one recognized by BMPC-23. Therefore, similar protective efficacy as BMPC-23 is expected from these antibodies (experiments in progress). […] Protective efficacy of these antibodies need to be tested (experiments in progress).

[4] = molecular target: human herpesvirus glycoprotein B (gB) (Human herpesvirus 2, UniProt P08666); experiment: Immunoprecipitation-Mass Spectrometry (IP-MS) target identification; assay type: binding
Description: FIG. 7A-7B. Immunoprecipitation-Mass Spectrometry (IP-MS) was performed to identify the binding targets of 22D10, 33B8, and BMPC-23 antibodies.
IP-MS was performed to identify the targets of 22D10, 33B8, and BMPC-23 antibodies.

[5] = tested on: HSV-2; experiment: Passive transfer in vivo protection assay, lethal HSV-2 challenge; set-up: species or system mice
Description: Mice were prime-boost immunized with ΔgD-2 and the spleens, draining lymph nodes or bone marrow were isolated. Germinal center (GC) B cells were then cultured on NB-21.2D9 cells (Nojima cultures). After culture, supernatants were screened for the presence of HSV-lysate binding IgG by ELISA. The V(D)J rearrangements amplified from selected GC B-cell cultures for the B-cell antigen receptor (BCR) repertoire analysis in GC B cell clones among individual mice were sequenced. Then, reconstituted antibodies from selected single GC B cell cultures and from single, bone marrow plasmacytes were evaluated for ability to activate the mFcγRIV in vitro and to protect mice in a passive transfer model.
Both IgG1 and IgG2c forms of 22D10, 33B8, and BMPC-23 antibodies (≥4 mg each) were assessed for reproducibility of in vivo protection assay, and any dependency on Ig isotype for protection. […] To test roles of Ig isotypes on ability to provide protection, IgG1 and IgG2c isotypes of these three antibodies were generated and assessed for ability to activate mFcγRIV signaling (as a measurement for ADCC), and for in vivo protection assay.

[6] = tested on: uninfected Vero lysate; experiment: ELISA binding to control uninfected Vero lysate
Description: Binding of recombinant antibodies to HSV-2 G lysates was tested by ELISA. Both heavy and light chain V(D)J rearrangements were amplified from selected single B-cell culture wells (22D10, 32H6, 33B8, and 35H7) by standard RT-PCR. These cloned V(D)J rearrangements were introduced into expression vectors. Recombinant antibodies were obtained by co-transfection of these expression vectors into Expi293F cells. ≥4 mg of purified IgGs was obtained (not shown).
Based on the obtained V(D)J sequences from each B-cell culture, paired heavy and light chains were re-expressed (as recombinant mouse IgG1 and IgG2c antibodies) in Expi293F cells (Kuraoka et al. Immunity 2016; DiLillo et al. Nature Medicine 2013). […] As expected, all recombinant antibodies reacted specifically with HSV-2 G lysates (FIG. 3). […] Binding of recombinant antibodies to HSV-2 G lysates was tested by ELISA. Both heavy and light chain V(D)J rearrangements were amplified from selected single B-cell culture wells (22D10, 32H6, 33B8, and 35H7) by standard RT-PCR. These cloned V(D)J rearrangements were introduced into expression vectors. Recombinant antibodies were obtained by co-transfection of these expression vectors into Expi293F cells. ≥4 mg of purified IgGs was obtained (not shown). […]

| Molecule | Target antigens [1] | Binding to HSV-lysate [2] | Competition with BMPC-23 [3] | Binding target identified by IP-MS [4] | Binding of recombinant antibodies to HSV-2 G lysates ([2]; ELISA, recombinant antibodies expressed in Expi293F cells) | Mice protected from lethal challenge ([5]; IgG2c version, overall results from 2 independent experiments, passive transfer) | in vivo protection ([5]; Table 3 summary) | Protection against lethal HSV-2 challenge ([5]; as IgG2c, passive transfer, overall survival, epithelial and neurological assays) | Binding to control, uninfected Vero lysate [6] |
| --- | --- | --- | --- | --- | --- | --- | --- | --- | --- |
| HSV010-13: gB-1 specific mouse monoclonal IgG; IgH SEQ ID NO: 52, IgL SEQ ID NO: 54 (antibody, V domains shown, HSV010-13 heavy chain; HSV010-13 light chain) VH: QVQLQQPGAELVKPGASVKLSCKASGYTFTSYWIHWVKQGPGQGLEWIGMIHPNSGITHYNEKFKTKATLTVDKSSSTAYMQLSSLTSEDSAVCYCARGSSSGSAWFAYWGQGTLVTVSAA VL: DIQMTQSSSYLSESLGGRVTITCKASDHINNWLAWYQQKPGNAPRLLISGATSLETGVPSRFSGSGSGKDYTLSITSLQTEDVATYYCQQYWSSPLTFGAGTKLELKR | gB | Yes | Weak | – | – | – | – | – | – |
| HSV010-14: gB-1 specific mouse monoclonal IgG; IgH SEQ ID NO: 56, IgL SEQ ID NO: 58 (antibody, V domains shown, HSV010-14 heavy chain; HSV010-14 light chain) VH: QVQLQQPGAELVKPGASVKLSCKASGYTFTSYWIHWVKQRPGQGLEWIGMIHPNSGIAHYSEKFKSTATLTVDKSSSTAYMQLSSLTSEDSSVYYCARGSSSGSAWFAYWGQGTLVTVSAA VL: DIQMTQSSSYLSVSLGGRVTITCKAGDHINNWLAWYQQKPGNAPRLLISGATSLETGVPSRFSGSGSGKDYTLSITSLQTEDVATYYCQQYWSTPLTFGAGTKLELKR | gB | Yes | Weak | – | – | – | – | – | – |
| HSV010-28: gB-1 specific mouse monoclonal IgG; IgH SEQ ID NO: 60, IgL SEQ ID NO: 62 (antibody, V domains shown, HSV010-28 heavy chain; HSV010-28 light chain) VH: QIQLVQSGPELKKPGETVKISCKASGYTFTTYGMSWVKQAPGKGLKWMGWINTYSGVSTYADDFKGRFAFSLETSASTAYLQINNLKNEDTATYFCAQVNYAMDYWGQGTSVTVSSA VL: DIVMTQSHKFLSTSVGDWVTITCKASQDVSTAVAWFQQKPGQSPKVLIYSASYRYTGVPDRFTGSGSGTDFTFTISSVQAEDLAVYYCQQHYSTPRTFGGGTKLEIKR | gB | Yes | Weak | – | – | – | – | – | – |
| 22D10: monoclonal antibody from germinal center B cell; IgH SEQ ID NO: 24, IgL SEQ ID NO: 26 (antibody, V domains shown, 22D10 heavy chain; 22D10 light chain) VH: DVQLQESGPALVKPSQTVSLTCTVTGYSITNGNHWWNWIRQVSGSKLEWLGYIRSSGSSDSNPSLKSRISITRDTSKNQLFLHLNSMTTEDIATYYCARGGGLRHYFDYWGQGTTLTVSSA VL: DIQMTQSPASLSASVGDTVTITCRASGNIHNYLAWYHQKQGKSPQLLVYHAETLTDGVPSRFSGSGSGTQYSLKINSLQPEDFGSYYCQHFWSTPYTFGGGTKLEIKR | (not gB) | Yes | – | human herpesvirus glycoprotein B (gB) | Retention of HSV-2 G lysate-binding | 5/10 | Yes | significant protection; also recorded: provides protection | did not bind |
